According to US20120077731A1 (Ablynx, published 2012):

What was measured:
Cyno plasma sIL-6R [1] = molecular target: T1, Cyno plasma sIL-6R (cynomolgus monkey, UniProt A0A2K5WN54 60-396); assay: plasma potency assay, cyno plasma, 2.4 nM IL6; blocked ligand IL-6
T1 construct: also called cynomolgus sIL-6R
T1 sequence: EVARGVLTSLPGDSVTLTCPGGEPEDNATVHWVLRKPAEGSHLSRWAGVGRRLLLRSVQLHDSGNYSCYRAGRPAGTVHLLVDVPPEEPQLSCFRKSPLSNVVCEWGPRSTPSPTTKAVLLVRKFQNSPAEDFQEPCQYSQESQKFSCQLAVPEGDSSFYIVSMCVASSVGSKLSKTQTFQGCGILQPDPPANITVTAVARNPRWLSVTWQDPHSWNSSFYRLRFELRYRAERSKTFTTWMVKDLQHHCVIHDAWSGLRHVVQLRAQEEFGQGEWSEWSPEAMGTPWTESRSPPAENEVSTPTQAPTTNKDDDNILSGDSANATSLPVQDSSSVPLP
Procedure: All 5 affinity matured Nanobodies and the sequence optimized Nanobody were also tested in a plasma potency assay. […] TMB was used as substrate.

IL-27B = molecular target: T2, IL-27B (UniProt Q14213 21-229, limits assumed); assay: competitive binding ELISA, similar setup (results not shown)
T2 sequence (looked up): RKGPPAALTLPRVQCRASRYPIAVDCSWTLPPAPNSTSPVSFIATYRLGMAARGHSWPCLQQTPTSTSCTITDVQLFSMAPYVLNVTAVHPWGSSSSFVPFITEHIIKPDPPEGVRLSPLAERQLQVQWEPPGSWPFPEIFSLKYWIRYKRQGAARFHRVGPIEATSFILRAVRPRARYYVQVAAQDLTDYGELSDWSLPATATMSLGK

IL12-p40 = molecular target: T3, IL12-p40 (UniProt P29460 23-328); assay: as above
T3 sequence (looked up): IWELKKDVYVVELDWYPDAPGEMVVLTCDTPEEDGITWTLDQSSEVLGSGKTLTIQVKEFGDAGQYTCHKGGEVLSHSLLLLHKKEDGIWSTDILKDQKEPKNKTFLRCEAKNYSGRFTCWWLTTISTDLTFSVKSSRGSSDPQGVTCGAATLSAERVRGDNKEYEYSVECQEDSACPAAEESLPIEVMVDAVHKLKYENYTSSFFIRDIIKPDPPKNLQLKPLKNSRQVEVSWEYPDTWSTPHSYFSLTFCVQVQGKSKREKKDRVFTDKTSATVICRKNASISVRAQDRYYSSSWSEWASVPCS

[2] = molecular target: T4, Human membrane IL-6R on cells (human, UniProt P08887 20-468); assay: flow cytometry, human PBL, granulocytes donor 1
T4 construct: whole, on cells; also called cell-surface expressed human IL-6R
T4 sequence (looked up): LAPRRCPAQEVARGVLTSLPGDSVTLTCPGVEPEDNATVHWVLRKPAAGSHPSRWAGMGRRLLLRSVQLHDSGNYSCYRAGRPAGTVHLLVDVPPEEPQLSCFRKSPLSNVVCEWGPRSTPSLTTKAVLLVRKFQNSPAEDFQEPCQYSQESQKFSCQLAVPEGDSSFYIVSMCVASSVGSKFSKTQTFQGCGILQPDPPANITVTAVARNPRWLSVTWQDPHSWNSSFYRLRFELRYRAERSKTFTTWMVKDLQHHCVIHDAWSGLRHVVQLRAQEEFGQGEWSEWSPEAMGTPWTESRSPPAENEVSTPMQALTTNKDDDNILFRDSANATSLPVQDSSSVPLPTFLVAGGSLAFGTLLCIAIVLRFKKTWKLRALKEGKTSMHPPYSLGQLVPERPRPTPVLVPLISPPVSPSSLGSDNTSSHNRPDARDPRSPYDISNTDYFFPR
Procedure: (§1) The Nanobodies were incubated in EDTA-treated blood from 2 donors and bound Nanobody was detected by flow cytometry. Lymphocytes, monocytes and granulocytes were gated based on FSC/SSC properties (FIG. 40) and bound Nanobodies were detected in the PE channel.

Cyno IL-6R = molecular target: T5, Cyno IL-6R (cynomolgus monkey, UniProt A0A2K5WN54 60-396); assay: Biacore T100, IL-6R captured by BN-12
T5 construct: also called cynomolgus monkey IL-6R; recombinant cyno sIL-6R
T5 sequence: T1 sequence

Human soluble IL-6R = molecular target: T6, Human soluble IL-6R (human, UniProt P08887 20-358); assay: Biacore T100, IL-6R captured by BN-12
T6 construct: Soluble recombinant form; biotinylated in some assays; also called hIL-6R; human IL-6R
T6 sequence (looked up): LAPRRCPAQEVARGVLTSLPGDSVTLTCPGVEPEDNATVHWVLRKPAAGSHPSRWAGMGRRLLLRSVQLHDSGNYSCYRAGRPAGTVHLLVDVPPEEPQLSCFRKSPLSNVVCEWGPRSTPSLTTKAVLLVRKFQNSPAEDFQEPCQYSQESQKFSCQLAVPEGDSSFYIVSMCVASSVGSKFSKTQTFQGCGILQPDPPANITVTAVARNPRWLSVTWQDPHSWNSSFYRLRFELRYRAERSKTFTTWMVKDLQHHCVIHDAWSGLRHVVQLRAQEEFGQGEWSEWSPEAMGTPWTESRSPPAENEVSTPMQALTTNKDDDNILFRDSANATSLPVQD

[3] = molecular target: T4, Human membrane IL-6R on cells; assay: flow cytometry, human PBL, monocytes donor 1
Procedure: as §1

[4] = molecular target: T4, Human membrane IL-6R on cells; assay: flow cytometry, human PBL, granulocytes donor 2
Procedure: as §1

Cyno plasma sIL-6R [5] = molecular target: T1, Cyno plasma sIL-6R; assay: plasma potency ELISA, human against cyno plasma

B1: PMP20A11 (VHH)
VHH: EVQLVESGGGLVQPGGSLRLSCAASGSVFKINVMAWYRQAPGKGRELVAGIISGGSTSYADSVKGRFTISRDNAKNTLYLQMNSLRPEDTAVYYCAFITTESDYDLGRRYWGQGTLVTVSS
notes: also called IL6R20A11; IL6R300; not shown: c-myc and (His)6 tags
IC50 (Cyno plasma sIL-6R [1]): 0.09 nM
binding result (IL-27B): no binding (tested: 100 nM)
binding result (IL12-p40): no binding (tested: 100 nM)
EC50 [2]: 2.42 nM
kon (Cyno IL-6R): 1e+06 M⁻¹ s⁻¹
kon (Human soluble IL-6R): 1e+06 M⁻¹ s⁻¹
EC50 [3]: 3.62 nM
EC50 [4]: 5.61 nM
Ratio (human/cyno) of IC50 (Cyno plasma sIL-6R [5]): 1.69
